Experimental data from paper PMC9814530 (2022).
Where no end group is shown, it is not given here.

Target: human angiotensin converting enzyme 2 (ACE2), recombinant (human, UniProt Q9BYF1 18-740)
Test: BLI

Sequence of human angiotensin converting enzyme 2 (ACE2), recombinant (Q9BYF1 18-740): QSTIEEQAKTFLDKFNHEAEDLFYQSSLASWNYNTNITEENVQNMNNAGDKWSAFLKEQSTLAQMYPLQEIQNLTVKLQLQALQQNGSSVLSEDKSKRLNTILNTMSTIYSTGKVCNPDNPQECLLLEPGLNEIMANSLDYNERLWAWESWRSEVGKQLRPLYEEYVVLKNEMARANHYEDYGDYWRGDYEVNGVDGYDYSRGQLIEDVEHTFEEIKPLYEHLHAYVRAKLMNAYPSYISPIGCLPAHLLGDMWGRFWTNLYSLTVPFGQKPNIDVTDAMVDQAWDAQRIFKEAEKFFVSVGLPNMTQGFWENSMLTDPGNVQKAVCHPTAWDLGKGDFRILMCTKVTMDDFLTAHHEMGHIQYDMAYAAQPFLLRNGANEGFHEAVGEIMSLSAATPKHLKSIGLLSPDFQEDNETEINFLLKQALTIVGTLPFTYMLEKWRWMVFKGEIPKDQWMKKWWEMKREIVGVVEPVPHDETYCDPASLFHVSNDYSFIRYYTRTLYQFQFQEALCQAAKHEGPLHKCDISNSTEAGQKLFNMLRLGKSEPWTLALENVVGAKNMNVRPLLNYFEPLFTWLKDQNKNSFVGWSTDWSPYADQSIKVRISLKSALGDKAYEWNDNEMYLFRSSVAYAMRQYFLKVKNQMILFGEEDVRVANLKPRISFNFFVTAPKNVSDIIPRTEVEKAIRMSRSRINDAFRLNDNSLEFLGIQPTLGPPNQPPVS

Binder: LKVKYMWDYLFGK-NH2 (also: biotinylated, position not given here) [ACE2-binding peptide ABP C4]
- Kd: 58 nM

Binder: LFRGYFAAMNNLK-NH2 (also: biotinylated, position not given here) [ACE2-binding peptide ABP C1]
- Kd: 66 nM

Binder: LHFAKWNHVWSWK-NH2 (also: biotinylated, position not given here) [ACE2-binding peptide ABP C2]
- Kd: 57 nM
